B1: SPOPL (parent)
chain: AKREETKAMESQRAYRFVQGKDWG
B2: SNAP91 (parent)
chain: FATASAAVPVSTSKPSSDLLDLQP

Variants of: B1
Experiment: protein stability index of a GFP-peptide fusion (GPS, HEK-293T) (PSI 1-6); higher = more stable
Conditions: c terminus: a fixed tail appended
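Further: lentivirally expressed fusions sorted by FACS into six bins by GFP to DsRed ratio, PSI derived from sequencing read proportions per bin multiplied by bin number.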

For AKREGTKAMESQRAYRFVQGKDWG, which protein stability index is on record?
Its protein stability index is 2.35.

Which protein stability index does the source give for AKRETTKAMESQRAYRFVQGKDWG here?
Its protein stability index is 2.9.

Which protein stability index does the source give for AKREHTKAMESQRAYRFVQGKDWG here?
The protein stability index was 2.28.

For AKREQTKAMESQRAYRFVQGKDWG, which protein stability index is on record?
Its protein stability index is 2.32.

With AKREITKAMESQRAYRFVQGKDWG as the variant, how does the protein stability index read?
Its protein stability index is 2.26.

For AKRENTKAMESQRAYRFVQGKDWG, which protein stability index is on record?
The protein stability index was 2.76.

For AKREVTKAMESQRAYRFVQGKDWG, which protein stability index is on record?
Its protein stability index is 3.02.

With AKREPTKAMESQRAYRFVQGKDWG as the variant, how does the protein stability index read?
The protein stability index was 2.76.

For AKREATKAMESQRAYRFVQGKDWG, which protein stability index is on record?
Its protein stability index is 2.67.

Which protein stability index does the source give for AKRECTKAMESQRAYRFVQGKDWG here?
Its protein stability index is 2.37.

With AKREFTKAMESQRAYRFVQGKDWG as the variant, how does the protein stability index read?
The protein stability index was 2.4.

Which protein stability index does the source give for AKREDTKAMESQRAYRFVQGKDWG here?
The protein stability index was 4.16.

For AKRELTKAMESQRAYRFVQGKDWG, which protein stability index is on record?
The protein stability index was 3.15.

With AKREKTKAMESQRAYRFVQGKDWG as the variant, how does the protein stability index read?
The protein stability index was 2.79.

For AKREMTKAMESQRAYRFVQGKDWG, which protein stability index is on record?
Its protein stability index is 2.28.

For AKRESTKAMESQRAYRFVQGKDWG, which protein stability index is on record?
Its protein stability index is 2.32.

With AKRERTKAMESQRAYRFVQGKDWG as the variant, how does the protein stability index read?
Its protein stability index is 2.38.

For SKREETKAMESQRAYRFVQGKDWG, which protein stability index is on record?
Its protein stability index is 2.81.

With HKREETKAMESQRAYRFVQGKDWG as the variant, how does the protein stability index read?
The protein stability index was 3.61.

With QKREETKAMESQRAYRFVQGKDWG as the variant, how does the protein stability index read?
Its protein stability index is 4.09.

Which protein stability index does the source give for PKREETKAMESQRAYRFVQGKDWG here?
Its protein stability index is 3.02.

For TKREETKAMESQRAYRFVQGKDWG, which protein stability index is on record?
The protein stability index was 2.93.

For VKREETKAMESQRAYRFVQGKDWG, which protein stability index is on record?
Its protein stability index is 2.29.

For IKREETKAMESQRAYRFVQGKDWG, which protein stability index is on record?
Its protein stability index is 2.59.

With CKREETKAMESQRAYRFVQGKDWG as the variant, how does the protein stability index read?
Its protein stability index is 2.14.

For FKREETKAMESQRAYRFVQGKDWG, which protein stability index is on record?
The protein stability index was 3.61.

Which protein stability index does the source give for LKREETKAMESQRAYRFVQGKDWG here?
The protein stability index was 2.55.

With EKREETKAMESQRAYRFVQGKDWG as the variant, how does the protein stability index read?
The protein stability index was 3.4.

With GKREETKAMESQRAYRFVQGKDWG as the variant, how does the protein stability index read?
The protein stability index was 2.82.

With KKREETKAMESQRAYRFVQGKDWG as the variant, how does the protein stability index read?
The protein stability index was 2.83.

With WKREETKAMESQRAYRFVQGKDWG as the variant, how does the protein stability index read?
Its protein stability index is 2.61.

With YKREETKAMESQRAYRFVQGKDWG as the variant, how does the protein stability index read?
Its protein stability index is 2.57.

Which protein stability index does the source give for RKREETKAMESQRAYRFVQGKDWG here?
Its protein stability index is 2.49.

With MKREETKAMESQRAYRFVQGKDWG as the variant, how does the protein stability index read?
Its protein stability index is 2.77.

For DKREETKAMESQRAYRFVQGKDWG, which protein stability index is on record?
Its protein stability index is 3.38.

With NKREETKAMESQRAYRFVQGKDWG as the variant, how does the protein stability index read?
Its protein stability index is 3.14.

For AKRCETKAMESQRAYRFVQGKDWG, which protein stability index is on record?
Its protein stability index is 2.35.

With AKRLETKAMESQRAYRFVQGKDWG as the variant, how does the protein stability index read?
The protein stability index was 2.26.

For AKRRETKAMESQRAYRFVQGKDWG, which protein stability index is on record?
The protein stability index was 2.44.

Which protein stability index does the source give for AKRPETKAMESQRAYRFVQGKDWG here?
Its protein stability index is 2.96.

With AKRKETKAMESQRAYRFVQGKDWG as the variant, how does the protein stability index read?
Its protein stability index is 2.77.

For AKRFETKAMESQRAYRFVQGKDWG, which protein stability index is on record?
The protein stability index was 2.21.

Which protein stability index does the source give for AKRTETKAMESQRAYRFVQGKDWG here?
The protein stability index was 3.

Which protein stability index does the source give for AKRDETKAMESQRAYRFVQGKDWG here?
Its protein stability index is 3.26.

For AKRWETKAMESQRAYRFVQGKDWG, which protein stability index is on record?
The protein stability index was 2.59.

Which protein stability index does the source give for AKRSETKAMESQRAYRFVQGKDWG here?
Its protein stability index is 3.05.

With AKRIETKAMESQRAYRFVQGKDWG as the variant, how does the protein stability index read?
The protein stability index was 3.2.

Which protein stability index does the source give for AKRQETKAMESQRAYRFVQGKDWG here?
Its protein stability index is 2.65.

For AKRAETKAMESQRAYRFVQGKDWG, which protein stability index is on record?
The protein stability index was 2.96.

For AKRHETKAMESQRAYRFVQGKDWG, which protein stability index is on record?
Its protein stability index is 2.5.

With AKRMETKAMESQRAYRFVQGKDWG as the variant, how does the protein stability index read?
Its protein stability index is 2.63.

For AKRVETKAMESQRAYRFVQGKDWG, which protein stability index is on record?
Its protein stability index is 2.42.

With AKRGETKAMESQRAYRFVQGKDWG as the variant, how does the protein stability index read?
Its protein stability index is 2.81.

Which protein stability index does the source give for AKRNETKAMESQRAYRFVQGKDWG here?
Its protein stability index is 2.54.

Which protein stability index does the source give for AKRYETKAMESQRAYRFVQGKDWG here?
The protein stability index was 2.02.

With AKSEETKAMESQRAYRFVQGKDWG as the variant, how does the protein stability index read?
The protein stability index was 3.34.

Which protein stability index does the source give for AKPEETKAMESQRAYRFVQGKDWG here?
Its protein stability index is 2.67.

For AKLEETKAMESQRAYRFVQGKDWG, which protein stability index is on record?
The protein stability index was 3.31.

Which protein stability index does the source give for AKDEETKAMESQRAYRFVQGKDWG here?
Its protein stability index is 3.67.

For AKGEETKAMESQRAYRFVQGKDWG, which protein stability index is on record?
The protein stability index was 3.

Which protein stability index does the source give for AKTEETKAMESQRAYRFVQGKDWG here?
The protein stability index was 2.88.

For AKFEETKAMESQRAYRFVQGKDWG, which protein stability index is on record?
Its protein stability index is 2.87.

Which protein stability index does the source give for AKQEETKAMESQRAYRFVQGKDWG here?
The protein stability index was 3.22.

With AKWEETKAMESQRAYRFVQGKDWG as the variant, how does the protein stability index read?
The protein stability index was 3.08.

With AKMEETKAMESQRAYRFVQGKDWG as the variant, how does the protein stability index read?
Its protein stability index is 3.32.

Which protein stability index does the source give for AKCEETKAMESQRAYRFVQGKDWG here?
The protein stability index was 2.26.

For AKHEETKAMESQRAYRFVQGKDWG, which protein stability index is on record?
The protein stability index was 2.45.

For AKYEETKAMESQRAYRFVQGKDWG, which protein stability index is on record?
The protein stability index was 2.93.

For AKVEETKAMESQRAYRFVQGKDWG, which protein stability index is on record?
Its protein stability index is 3.24.

Which protein stability index does the source give for AKAEETKAMESQRAYRFVQGKDWG here?
The protein stability index was 3.49.

For AKNEETKAMESQRAYRFVQGKDWG, which protein stability index is on record?
Its protein stability index is 2.91.

Which protein stability index does the source give for AKKEETKAMESQRAYRFVQGKDWG here?
The protein stability index was 3.38.

For AKIEETKAMESQRAYRFVQGKDWG, which protein stability index is on record?
The protein stability index was 3.36.

With AKEEETKAMESQRAYRFVQGKDWG as the variant, how does the protein stability index read?
Its protein stability index is 4.03.

Which protein stability index does the source give for AFREETKAMESQRAYRFVQGKDWG here?
Its protein stability index is 2.81.

Which protein stability index does the source give for AEREETKAMESQRAYRFVQGKDWG here?
The protein stability index was 3.61.

For ANREETKAMESQRAYRFVQGKDWG, which protein stability index is on record?
The protein stability index was 3.41.

Which protein stability index does the source give for AQREETKAMESQRAYRFVQGKDWG here?
Its protein stability index is 3.13.

For AVREETKAMESQRAYRFVQGKDWG, which protein stability index is on record?
The protein stability index was 2.98.

For AGREETKAMESQRAYRFVQGKDWG, which protein stability index is on record?
The protein stability index was 2.6.

Which protein stability index does the source give for AMREETKAMESQRAYRFVQGKDWG here?
Its protein stability index is 2.06.

With ALREETKAMESQRAYRFVQGKDWG as the variant, how does the protein stability index read?
The protein stability index was 2.24.

With ACREETKAMESQRAYRFVQGKDWG as the variant, how does the protein stability index read?
The protein stability index was 1.75.

With AIREETKAMESQRAYRFVQGKDWG as the variant, how does the protein stability index read?
Its protein stability index is 2.71.

Which protein stability index does the source give for AAREETKAMESQRAYRFVQGKDWG here?
Its protein stability index is 3.03.

With AYREETKAMESQRAYRFVQGKDWG as the variant, how does the protein stability index read?
Its protein stability index is 2.74.

For AWREETKAMESQRAYRFVQGKDWG, which protein stability index is on record?
Its protein stability index is 2.48.

With ATREETKAMESQRAYRFVQGKDWG as the variant, how does the protein stability index read?
Its protein stability index is 3.37.

For ARREETKAMESQRAYRFVQGKDWG, which protein stability index is on record?
Its protein stability index is 2.92.

With APREETKAMESQRAYRFVQGKDWG as the variant, how does the protein stability index read?
Its protein stability index is 3.3.

For ASREETKAMESQRAYRFVQGKDWG, which protein stability index is on record?
Its protein stability index is 2.85.

Which protein stability index does the source give for ADREETKAMESQRAYRFVQGKDWG here?
Its protein stability index is 3.39.

Which protein stability index does the source give for AHREETKAMESQRAYRFVQGKDWG here?
The protein stability index was 2.93.

Variants of: B2
Experiment: as above
Conditions: c terminus: a fixed tail appended

With FATASAAVPVSTSKPSSDLLDLRP as the variant, how does the protein stability index read?
The protein stability index was 3.34.
